Reference: patent publication US20240034813A1 (Janssen / Centocor, published 2024)

Key:
[1] = target: T1, recombinant human EGFR/ErbB1/HER1 with C-terminal His tag, Cy5-labeled (human, UniProt P00533 25-645, Cy5 label (reacted with Cy5 Mono NHS Ester; sites not stated)); experiment: competitive TR-FRET (Eu-amivantamab/Cy5-EGFR), EC50 ratio vs Reference Material; Ex. 11 drug product, 0 months, 5 C table
T1 construct: Commercial protein; also called Cy5-EGFR; Cy5-labeled EGFR antigen; not shown: C-terminal His tag
Excerpt: (§1) In this procedure, varying concentrations of unlabeled bispecific EGFR-cMet antibody sample compete with donor fluorophore (Europium (Eu) chelate) labeled bispecific EGFR-cMet antibody for binding to an acceptor fluorophore (Cy5)-labeled EGFR antigen. Excitation of the donor fluorophore results in a transfer of energy to the bound acceptor fluorophore (FRET process). The resultant FRET is detected by emission of light at 665 nm using a microplate reader capable of measuring time-resolved fluorescence. Sample dose response curves are compared to the RM.
(§2) EGFR Binding Materials and Methods. Certified commercial EGFR, a recombinant human EGFR/ErbB1/HER1 with C-terminal His tag is reacted with certified commercial Cy5 Mono NHS Ester to produce Cy5-labeled EGFR. Validated bispecific EGFR-cMet antibody is reacted with certified commercial Europium (Eu) chelate to produce Eu-labeled bispecific EGFR-cMet antibody. […] Fluorescence is then measured by spectrophotometry at 665 nm, plotted against antibody concentration and analyzed by a four-parameter logistic model. The antibody concentration required to obtain half of the maximum fluorescence response (EC50) is determined for RM, assay control and samples. The potencies of assay control and samples are calculated based on the ratio of the sample (or control) and RM EC50 values and reported as a percentage activity relative to the RM.

[2] = target: T1, recombinant human EGFR/ErbB1/HER1 with …; experiment: competitive TR-FRET (Eu-amivantamab/Cy5-EGFR), EC50 ratio vs Reference Material; Ex. 2 Formulation 3 (acetate), T0, 5 C table
Excerpt: as §1, §2

[3] = target: T1, recombinant human EGFR/ErbB1/HER1 with …; experiment: competitive TR-FRET (Eu-amivantamab/Cy5-EGFR), EC50 ratio vs Reference Material; Ex. 2 Formulation 3 (acetate), 3 months at 5 C
Excerpt: as §1, §2

[4] = target: T1, recombinant human EGFR/ErbB1/HER1 with …; experiment: competitive TR-FRET (Eu-amivantamab/Cy5-EGFR), EC50 ratio vs Reference Material; Ex. 12 drug product with rHuPH20, 6 months at 25 C
Excerpt: as §1, §2

[5] = target: T1, recombinant human EGFR/ErbB1/HER1 with …; experiment: competitive TR-FRET (Eu-amivantamab/Cy5-EGFR), EC50 ratio vs Reference Material; Ex. 2 Formulation 1 (10 mM histidine), 3 months at 5 C
Excerpt: as §1, §2

[6] = target: T1, recombinant human EGFR/ErbB1/HER1 with …; experiment: competitive TR-FRET (Eu-amivantamab/Cy5-EGFR), EC50 ratio vs Reference Material; Ex. 12 drug product with rHuPH20, 0 months, 40 C table
Excerpt: as §1, §2

[7] = target: T2, recombinant cMet/HGFR with c-terminal His-tag, Cy5-labeled (UniProt P08581 25-932, limits assumed, Cy5 label (reacted with Cy5 Mono NHS Ester; sites not stated)); experiment: competitive TR-FRET (Eu-amivantamab/Cy5-c-MET), EC50 ratio vs Reference Material; Ex. 2 Formulation 2 (50 mM histidine), 3 months at 5 C
T2 construct: Commercial protein; also called Cy5-c-MET; Cy5-labeled c-MET antigen; not shown: C-terminal His-tag
Excerpt: as §1, with “(Cy5)-labeled c-MET” for “(Cy5)-labeled EGFR”, “the Reference Material (RM).” for “the RM.”
as §2, with “c-MET Binding” for “EGFR Binding”, “commercial cMet,” for “commercial EGFR,”, “recombinant cMet/HGFR” for “recombinant human EGFR/ErbB1/HER1”, “with c-terminal His-tag” for “with C-terminal His tag”, “Cy5-labeled c-MET.” for “Cy5-labeled EGFR.”, “produce Eu labeled” for “produce Eu-labeled”

[8] = target: T2, recombinant cMet/HGFR with c-terminal …; experiment: competitive TR-FRET (Eu-amivantamab/Cy5-c-MET), EC50 ratio vs Reference Material; Ex. 2 Formulation 2 (50 mM histidine), 3 months at 25 C
Excerpt: as §1, with “(Cy5)-labeled c-MET” for “(Cy5)-labeled EGFR”, “the Reference Material (RM).” for “the RM.”
as §2, with “c-MET Binding” for “EGFR Binding”, “commercial cMet,” for “commercial EGFR,”, “recombinant cMet/HGFR” for “recombinant human EGFR/ErbB1/HER1”, “with c-terminal His-tag” for “with C-terminal His tag”, “Cy5-labeled c-MET.” for “Cy5-labeled EGFR.”, “produce Eu labeled” for “produce Eu-labeled”

B1: amivantamab (bispecific antibody, human IgG1, kappa)
heavy 1: not shown
light 1: not shown
heavy 2: not shown
light 2: DIQMTQSPSSVSASVGDRVTITCRASQGISNWLAWFQHKPGKAPKLLIYAASSLLSGVPSRFSGSGSGTDFTLTISSLQPEDFATYYCQQANSFPITFGQGTRLEIKRTVAAPSVFIFPPSDEQLKSGTASVVCLLNNFYPREAKVQWKVDNALQSGNSQESVTEQDSKDSTYSLSSTLTLSKADYEKHKVYACEVTHQGLSSPVTKSFNRGEC
notes: The samples tested were high concentration (160 mg/mL) formulations, fresh or stored or stressed; also called JNJ-61186372; bispecific EGFR-cMet antibody
[1]
  EGFR Binding activity relative to Reference Material (%): 89%
[2]
  EGFR Binding % activity relative to RM: 103%
[3]
  EGFR Binding % activity relative to RM: 87%
[4]
  EGFR Binding activity relative to Reference Material (%): 54%
[5]
  EGFR Binding % activity relative to RM: 102%
[6]
  EGFR Binding activity relative to Reference Material (%): 92%
[7]
  cMET Binding % activity relative to RM: 98%
[8]
  cMET Binding % activity relative to RM: 89%
